The koff is a measure of how fast the partners let go of each other. In general, kon refers to a measure of how fast the partners come together.

The text below walks through data of article PMC3137634, “Concurrent Proinflammatory and Apoptotic Activity of a Helicobacter pylori Protein (HP986) Points to Its Role in Chronic Persistence” (PLoS ONE, 2011).

The target in the assay is T1, recombinant HP986 (Helicobacter pylori, UniProt O25636 1-237).
T1 construct: HP986 (HP0986), protein of unknown function from the plasticity zone of Helicobacter pylori; PCR product spanning 711 bp cloned at XhoI/HindIII of pRSETA; about 29 kDa; 711 bp would be 237 codons with the stop or without; also called rHP986; HP0986; source: E. coli BL21 (DE3), purified (Ni2+-NTA, size exclusion chromatography)
T1 sequence: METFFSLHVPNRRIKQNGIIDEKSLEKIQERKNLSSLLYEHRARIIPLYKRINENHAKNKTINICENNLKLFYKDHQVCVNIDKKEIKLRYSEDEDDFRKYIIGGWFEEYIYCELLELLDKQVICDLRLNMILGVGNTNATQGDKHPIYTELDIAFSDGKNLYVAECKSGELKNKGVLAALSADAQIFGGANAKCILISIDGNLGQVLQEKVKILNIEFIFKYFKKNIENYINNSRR
In words: SPR; BIAcore 3000; human TNFR1/Fc amine-coupled to a CM5 chip up to 150 RU; rHP986 at 100, 400, 800 and 1200 nM in PBS, 30 µl/min; 1:1 Langmuir model. The settings on record: both partners purified.

B1: Human TNFR1/Fc (Fc fusion, UniProt P19438 30-211, looked up)
chain: LVPHLGDREKRDSVCPQGKYIHPQNNSICCTKCHKGTYLYNDCPGPGQDTDCRECESGSFTASENHLRHCLSCSKCRKEMGQVEISSCTVDRDTVCGCRKNQYRHYWSENLFQCFNCSLCLNGTVHLSCQEKQNTVCTCHAGFFLRENECVSCSNCKKSLECTKLCLPQIENVKGTEDSGTT
notes: soluble human TNFR1 (tumor necrosis factor receptor 1) fused to Fc; Commercial TNFR1/Fc chimeras usually hold the extracellular domain joined to human IgG1 Fc at the C-terminus; also called soluble humanTNFR1; hu TNFR1; source: bought: Sigma, USA
Consider B1, for which the koff came to 0.000908 s⁻¹ and the association rate constant (kon) turned out to be 12600 M⁻¹ s⁻¹.
